We go through 3 molecules from paper PMC5512577, “PDE6δ-mediated sorting of INPP5E into the cilium is determined by cargo-carrier affinity” (Nature Communications, 2016).

Like-named read-outs stand apart in the source and are kept apart here.

For one assay, the system named is PDE6δ. In words: Stopped-flow fluorescence polarization kinetics of mantGppNHp-loaded Arl proteins with PDE6δ. In kind it is binding. To be noted: for association rate constant kon with PDE6δ: 0.2 μM mantGppNHp-loaded Arl protein, increasing PDE6δ; for association rate constant kon with PDE6δ / dissociation rate constant koff from PDE6δ: 20 °C; for association rate constant kon with PDE6δ / dissociation rate constant koff from PDE6δ / Kd: n=4; for dissociation rate constant koff from PDE6δ: 2 μM PDE6δ with 0.2 μM mantGppNHp-loaded Arl protein, 200-fold excess unlabelled Arl protein; for Kd: calculated from kinetic constants, ± s.d., read-out: equilibrium dissociation constant Kd with PDE6δ (Kd=koff/kon). How it is done:
Previously we have shown that the N-terminal helix of Arl3 is important to release myristoylated cargo from a complex with the shuttle factor UNC119 (ref. [30]). To find out whether the N-terminus of Arl3 and/or Arl2 has a similar if any role in the interaction with PDE6δ, fluorescence polarization measurements using full-length Arl3 (Arl3^fl) or an N-terminal truncated form (Arl3^ΔN) were performed. […] To investigate the role of the N-terminal helix of Arl3 in the release mechanism, we measured association and dissociation rate constants to determine the affinity of PDE6δ towards Arl2 and Arl3 in both full-length and N-terminal truncated forms. Association rate constants between the four proteins Arl3^fl, Arl3^ΔN, Arl2^fl and Arl2^ΔN are rather similar although association is almost twice as fast for full-length Arl3 as compared with Arl2 (Fig. 3a,b). […] The Kd values for Arl2^fl and Arl3^fl differ from previously determined values, likely because of the different techniques used.
Figure 3 Contribution of the N-terminal helix of Arl3 to the binding affinity with PDE6δ. (a) Stopped-flow fluorescence polarization kinetic measurements of the association of 0.2 μM mantGppNHp loaded Arl proteins with increasing concentrations of PDE6δ. The observed pseudo-first order rate constants (kobs) are plotted against PDE6δ concentration. (b) Bar charts of the association rate constants (kon) determined in a. (c,d) Stopped-flow fluorescence polarization kinetic experiments where complexes of 2 μM PDE6δ with 0.2 μM of full-length (Arl^fl) or N-terminally deleted (Arl^ΔN) mantGppNHp loaded Arl proteins as indicated were mixed with 200-fold excess of unlabelled Arl proteins to determine koff. (e) Bar charts of the dissociation rate constants (koff) from experiments in c,d. (f) Bar charts of the equilibrium dissociation constants (Kd) of complexes between PDE6δ and Arl proteins as determined from the kinetic constants in c,e. Error bars indicate s.d., n=4. TEXT PRINTED IN THE PICTURE: (b) Arl3^fl: kon (μM^-1s^-1): 5.97 | (b) Arl3^ΔN: kon (μM^-1s^-1): 4.25 | (b) Arl2^fl: kon (μM^-1s^-1): 2.25 | (b) Arl2^ΔN: kon (μM^-1s^-1): 3.09 | (e) Arl3^fl: koff (s^-1): 0.035 | (e) Arl3^ΔN: koff (s^-1): 0.92 | (e) Arl2^fl: koff (s^-1): 0.33 | (e) Arl2^ΔN: koff (s^-1): 0.98 | (f) Arl3^fl: kd (nM): 5.84 | (f) Arl3^ΔN: kd (nM): 217 | (f) Arl2^fl: kd (nM): 149 | (f) Arl2^ΔN: kd (nM): 319
All fluorescence polarization measurements were performed at 20 °C in a buffer containing 25 mM Tris-HCl (pH 7.5), 50 mM NaCl and 3 mM DTE. For the titration measurement, data were recorded with Fluoromax-4 spectrophotometer (HORIBA Jobin Yvon, Munich, Germany) with excitation and emission wavelengths at 530 and 580 nm for TAMRA-labelled INPP5E peptide and at 495 and 520 nm for fluorescein-labelled Rheb peptide. The kinetic measurements were monitored by a stopped-flow apparatus (Applied Photophysics) in the polarization mode using an excitation wavelength of 366 nm and filter with 420 nm cutoff for mantGppNHp bound Arl protein, excitation wavelength of 495 nm and filter with 520 nm cutoff for fluorescein-labelled Rheb peptide and excitation wavelength of 530 nm and filter with 570 nm cutoff for TAMRA-labelled INPP5E peptide. Data analysis was done with GraFit 5.0 program (Erithracus Software). Concentrations used for each experiment are indicated in the corresponding figure legend.

In a further assay the test system is GST-PDE6δ. In words: GST-PDE6δ pull-down and release by Arl2/Arl3 from IMCD3 lysates. Format: binding. The conditions noted are these: 20 μM GST-PDE6δ on GSH-beads, 20 μM Arl2 or Arl3, 1 h 4 °C, anti-GFP immunoblot. The procedure:
Figure 5 INPP5E ciliary enrichment is dependent on high affinity to PDE6δ. […] White bar indicates 5 μm. (b) Bar chart showing ratio of GFP intensity in cilia to the total GFP intensity, indicating the enrichment of GFP-tagged protein in cilia. […] Error bars indicate s.d., n≥35 (P<0.05; Student’s t-test). […] Formed complexes in the pulldown experiment were incubated with Arl2 or Arl3 as indicated. The amount of GFP-tagged interacting proteins bound to GST-PDE6δ was detected by immunoblotting with an antibody against GFP.
IMCD3 cells stably expressing GFP-INPP5E(WT) or GFP-INPP5E(KS) were lysed in lysis buffer containing 75 mM Hepes pH 7.5, 150 mM KCl, 1.5 mM EGTA, 1.5 mM MgCl2, 15% glycerol, 0.2% NP-40 and one protease inhibitor cocktail tablet (Roche). Cell lysates were cleared and supernatants were incubated for 1 h at 4 °C with 100 μl GSH-beads conjugated with 20 μM GST-PDE6δ. For the release assay, 20 μM of either Arl2 or Arl3 were added to the previous mixture and incubated for further 1 h at 4 °C. After 5 times washing with the lysis buffer, the complexes were analysed by western blotting using anti-GFP antibody (1:500; Santa Cruz Biotechnology sc-9996) and anti GST (1:5,000; home source). Full scans of western blots are provided in Supplementary Fig. 6.

B1: Arl2^fl: full-length Arl2, mantGppNHp loaded (protein)
chain: MGLLTILKKMKQKERELRLLMLGLDNAGKTTILKKFNGEDVDTISPTLGFNIKTLEHRGFKLNIWDVGGQKSLRSYWRNYFESTDGLIWVVDSADRQRMQDCQRELQSLLVEERLAGATLLIFANKQDLPGALSCNAIQEALELDSIRSHHWRIQGCSAVTGEDLLPGIDWLLDDISSRVFTAD
modifications: left off: His tag, C-terminal, state not stated
notes: full-length Arl2, mantGppNHp loaded
On to B1, for which, in the assay with PDE6δ, the “difference in koff / residence time with PDE6δ, full-length versus N-terminally deleted form” value was “threefold”; the “association rate constant kon with PDE6δ” value was 2.25e+06 M⁻¹ s⁻¹; the “dissociation rate constant koff from PDE6δ” value is 0.33 s⁻¹; the Kd was 149 ± 19 nM. Moreover, in the assay with PDE6δ (listed as Arl2^ΔN), the “association rate constant kon with PDE6δ” value stood at 3.09e+06 M⁻¹ s⁻¹, the “dissociation rate constant koff from PDE6δ” value came out at 0.98 s⁻¹ and the Kd was 316 ± 6.3 nM.

B2: INPP5E(KS) mutant: GFP-tagged INPP5E S641K/V643S protein stably expressed in IMCD3 cells (protein)
chain: MPSKSACLRHTEAPGQLEGRMLQGQPPNTEKKLIPTPGFLPASDSQGSETNPMPPFSIPAKTSNQNPQTKANLITPQPPIRPKLERTLSLDDKGWRRRRFRGSQEDLTVQNGASPCRGSLQDSVAQSPAYSRPLPCLSTSLQEIPKSRRATGSEGGSPSLWSDCLSGMISTSLDLLHRDAASGGPPSRLASLHASHTPPAMDLSIASSSLRTANKVDPEHTDYKLRMQTRLVRAHSNLGPSRPRSPLAGDDHSIHSARSFSLLAPIRTKDIRSRSYLEGSLLASGALLGAEELARYFPDRNMALFVATWNMQGQKELPASLDEFLLPTEADYTQDLYVIGIQEGCSDRREWETRLQETLGPQYVLLSSAAHGVLYMSLFIRRDLIWFCSEVEYSTVTTRIVSQIKTKGALGVSFTFFGTSFLFITSHFTSGDGKVAERLLDYSRTIQALALPRNVPDTNPYRSSAGDVTTRFDEVFWFGDFNFRLSGGRVAVEAFLKQKPEVDVLALLQHDQLTREMKKGSIFRGFEEAEIHFLPSYKFDIGKDTYDSTSKQRTPSYTDRVLYKSRHKGDICPMKYSSCPGIKTSDHRPVYGLFQVKVRPGRDNIPLAAGKFDRELYLIGIKRRISKEIQRQEALKSQSSKASCTVS
modifications: left off: LAP tag (GFP-TEV-site-S-peptide), N-terminal, kept
notes: GFP-tagged INPP5E S641K/V643S protein stably expressed in IMCD3 cells
For the molecule B2, the “release from GST-PDE6δ by Arl2·GppNHp / Arl3·GppNHp” value in the assay with GST-PDE6δ is “can indeed be released by both Arl2·GppNHp and Arl3·GppNHp”.

B3: INPP5E(WT): GFP (LAP)-tagged mouse INPP5E stably expressed in IMCD3 cells (protein)
chain: MPSKSACLRHTEAPGQLEGRMLQGQPPNTEKKLIPTPGFLPASDSQGSETNPMPPFSIPAKTSNQNPQTKANLITPQPPIRPKLERTLSLDDKGWRRRRFRGSQEDLTVQNGASPCRGSLQDSVAQSPAYSRPLPCLSTSLQEIPKSRRATGSEGGSPSLWSDCLSGMISTSLDLLHRDAASGGPPSRLASLHASHTPPAMDLSIASSSLRTANKVDPEHTDYKLRMQTRLVRAHSNLGPSRPRSPLAGDDHSIHSARSFSLLAPIRTKDIRSRSYLEGSLLASGALLGAEELARYFPDRNMALFVATWNMQGQKELPASLDEFLLPTEADYTQDLYVIGIQEGCSDRREWETRLQETLGPQYVLLSSAAHGVLYMSLFIRRDLIWFCSEVEYSTVTTRIVSQIKTKGALGVSFTFFGTSFLFITSHFTSGDGKVAERLLDYSRTIQALALPRNVPDTNPYRSSAGDVTTRFDEVFWFGDFNFRLSGGRVAVEAFLKQKPEVDVLALLQHDQLTREMKKGSIFRGFEEAEIHFLPSYKFDIGKDTYDSTSKQRTPSYTDRVLYKSRHKGDICPMKYSSCPGIKTSDHRPVYGLFQVKVRPGRDNIPLAAGKFDRELYLIGIKRRISKEIQRQEALKSQSSSAVC
modifications: left off: LAP tag (GFP-TEV-site-S-peptide), N-terminal, kept
notes: GFP (LAP)-tagged mouse INPP5E stably expressed in IMCD3 cells
In the case of B3, in the assay with GST-PDE6δ, the “release from GST-PDE6δ by Arl2·GppNHp / Arl3·GppNHp” value is on record as “specifically released only by Arl3·GppNHp”.
